Like-named read-outs stand apart in the source and are kept apart here. Values belong to the binder of their own block, whether it stands above or below them.
Tests used:
[1] = molecular target: T1, recombinant soluble human IL-6 receptor (SR344) (human, UniProt P08887 20-344); test: Biacore T100, SR344 as analyte; KD(pH5.8)/KD(pH7.4) compared with WT
T1 construct: In the 'membrane-type IL-6 receptor' Biacore assays the same SR344 was biotinylated and immobilized via streptavidin; also called soluble IL-6 receptor; membrane-type IL-6 receptor (as biotinylated SR344 immobilized on the sensor chip)
T1 sequence (looked up): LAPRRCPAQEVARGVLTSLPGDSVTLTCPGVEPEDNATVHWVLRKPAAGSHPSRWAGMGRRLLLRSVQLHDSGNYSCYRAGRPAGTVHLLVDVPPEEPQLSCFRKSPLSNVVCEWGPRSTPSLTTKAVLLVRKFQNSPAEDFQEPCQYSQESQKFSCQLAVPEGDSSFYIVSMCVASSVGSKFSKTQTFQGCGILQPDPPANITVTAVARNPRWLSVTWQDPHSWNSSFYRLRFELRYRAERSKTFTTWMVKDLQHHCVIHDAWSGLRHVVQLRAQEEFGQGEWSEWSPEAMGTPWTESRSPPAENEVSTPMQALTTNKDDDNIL
Description: (§1) Kinetic analyses of antigen-antibody reactions at pH 5.8 and pH 7.4 were carried out using Biacore T100 (GE Healthcare) on the four antibodies: humanized PM1 antibody (WT) and H3pI/L73, CLH5/L73, and H170/L82 produced in Examples 2 and 4 (buffer: 10 mM MES (pH 7.4 or pH 5.8), 150 mM NaCl, and 0.05% Tween 20). Various antibodies were bound onto a sensor chip immobilized with recomb-protein A/G (Pierce) by amine coupling. SR344 adjusted to concentrations of 9.8 to 400 nM was injected to the chip as an analyte. […] All the measurements were carried out at 37° C. Association rate constants kₐ (1/Ms) and dissociation rate constants kd (1/s) were calculated using Biacore T100 Evaluation Software (GE Healthcare), and dissociation constants KD (M) were calculated on the basis of those values (Table 5). Moreover, the ratio of the affinities at pH 5.8 and pH 7.4 were calculated for each clone to evaluate pH-dependent binding. All the measurements were carried out at 37° C.

[2] = molecular target: T1, recombinant soluble human IL-6 receptor …; test: Biacore T100, antibody captured on protein A/G, SR344 as analyte, 37C; ratio of KD at pH 5.8 to pH 7.4
Description: as §1

[3] = molecular target: T1, recombinant soluble human IL-6 receptor …; test: Biacore T100, biotinylated SR344 immobilized via streptavidin (membrane-type IL-6 receptor model), antibody as analyte; ratio of kd at pH 5.8 to pH 7.4
Description: (§2) Binding to the membrane-type IL-6 receptor was evaluated by evaluating binding to the IL-6 receptor immobilized on a sensor chip. SR344 was biotinylated in accordance with a method known among persons with ordinary skill in the art, and the biotinylated SR344 was immobilized on the sensor chip via streptavidin using the affinity between streptavidin and biotin. All the measurements were carried out at 37° C. The mobile phase buffer was 10 mM MES (pH 5.8), 150 mM NaCl and 0.05% Tween 20.
(§3) The pH-dependently-binding clones were injected under the condition of pH 7.4 to allow them to bind to SR344, and then, the pH-dependent dissociation of each clone at the pH of the mobile phase, pH 5.8, was observed. The results are shown in FIG. 21 (results for Fv1-M71, Fv1-M73, Fv3-M71, and Fv3-M73 are shown in FIG. 21, while results for other clones are shown in FIGS. 17 and 19). Analyses were carried out in the same manner as in Example 10 and the pH dependencies of the dissociation rate constants of all of the eleven types of clones are shown in Table 12.

[4] = molecular target: T1, recombinant soluble human IL-6 receptor …; test: as above; remark: listed apart in the source
Description: as §2, §3

[5] = molecular target: T1, recombinant soluble human IL-6 receptor …; test: Biacore T100, integrated RU of SR344 bound over ten cycles of pH 7.4 binding and pH 5.8 exposure, 37C
Text: Biacore (GE Healthcare) was used to evaluate that the antibodies binding at pH 7.4 and dissociating at pH 5.8 were able to bind to the antigen multiple times. The antibody to be evaluated was bound to a recomb-protein A/G (Pierce)-immobilized sensor chip by the amine coupling method, and a mobile phase of pH 7.4 was allowed to flow (step 1). SR344 solution adjusted to pH 7.4 was then allowed to flow as an analyte to bind SR344 to the antibody at pH 7.4 (step 2). This binding at pH 7.4 mimics the antigen binding in plasma. Subsequently, buffer adjusted to pH 5.8 alone (not containing SR344) was added as an analyte to expose the antigen bound to the antibody to acidic conditions (step 3). This dissociation at pH 5.8 mimics the binding state of antigen-antibody complexes in endosomes. Subsequently, step 2 was repeated. This mimics the rebinding of antibody that has been returned to plasma by FcRn to a new antigen. Subsequently, […] was repeated to expose the antibody-antigen complex to acidic conditions.
The produced pH-dependent binding clones described above were analyzed using Biacore T100 (GE Healthcare) for their ability to bind to the antigen SR344 multipe times at pH 5.8 and pH 7.4. More specifically, the analysis was carried out as follows. All the measurements were carried out at 37° C. […]

[6] = molecular target: T1, recombinant soluble human IL-6 receptor …; test: Biacore T100, antibody captured on protein A/G, SR344 as analyte, 37C; ratio of KD at pH 5.8 to pH 7.4; remark: listed apart in the source
Description: (§4) Kinetic analysis of antigen-antibody reactions at pH 7.4 and pH 5.8 was carried out using Biacore T100 (GE Healthcare) for the four types of antibodies prepared: WT-IgG1, H54/L28-IgG1, H170/L82-IgG1, and Fv4-IgG1(buffer: 10 mM MES (pH 7.4 or pH 5.8), 150 mM NaCl, 0.05% Surfactant-P20). The antibodies were bound to a sensor chip on which recomb-protein A/G (Pierce) was immobilized by amine coupling, and SR344 adjusted to an appropriate concentration was injected therein as an analyte. The association with and dissociation from SR344 of each type of antibody were observed on a real-time basis. All the measurements were carried out at 37° C. Association rate constants kₐ (1/Ms) and dissociation rate constants kd (1/s) were calculated using Biacore T100 Evaluation Software (GE Healthcare), and dissociation constants KD (M) were calculated based on those values (Table 17).

[7] = molecular target: T1, recombinant soluble human IL-6 receptor …; test: Biacore T100, antibody captured on protein A/G, SR344 as analyte, 37C; ratio of kd at pH 5.8 to pH 7.4
Description: as §4

[8] = molecular target: T2, human IL-6 (Toray) (human, UniProt P05231 30-212); test: Biacore T100, antibody captured on protein A/G, human IL-6 as analyte, 37C; ratio of KD at pH 5.5 to pH 7.4
T2 construct: also called human interleukin-6
Description: (§5) Kinetic analysis of antigen-antibody reactions at pH 5.5 and pH 7.4 was carried out using Biacore T100 (GE Healthcare) for the three types of antibodies prepared as mentioned above: Anti-IL6 wild type, Anti-IL6 clone 1, and Anti-IL-6 clone 2 (buffer: DPBS(−) (pH 7.4 or pH 5.5), 150 mM NaCl). The antibodies were bound to a sensor chip on which recomb-protein A/G (Pierce) was immobilized by amine coupling, and then human IL-6 (Toray) adjusted to an appropriate concentration was injected on the chip as an analyte. All the measurements were carried out at 37° C. Association rate constants kₐ (1/Ms) and dissociation rate constants kd (1/s) were calculated using Biacore T100 Evaluation Software (GE Healthcare), and dissociation constants KD (M) were calculated based on those values (Table 14). Furthermore, the ratio of affinity at pH 5.5 and pH 7.4 was calculated for each clone to evaluate the pH-dependent binding.

[9] = molecular target: T2, human IL-6 (Toray); test: Biacore T100, human IL-6 as analyte; KD(pH 5.5)/KD(pH 7.4) compared with Anti-IL6 wild type
Description: as §5

pH-dependent binding (affinity ratio) relative to WT [1]: 15 times
total amount of antigen bound over ten cycles relative to WT [5]: ~4 times
KD(pH5.8)/KD(pH7.4) [2]: 66.1
B3: CLH5/L73 (antibody, IgG1, V domains shown)
VH: QVQLQESGPGLVKPSETLSLTCAVSGYSISHDHAWSWVRQPPGEGLEWIGHISYSGITNYNPHLKGRVTISRDTSKNQFSLKLSSVTAADTAAYYCARFLARITAHDHWGEGTLVTVSS
VL: DIQMTQSPSSLSASVGDSVTITCQASQHISSHLNWYQQKPGKAPELLIYYGSHLHSGVPSRFSGSGSGTDFTFTISSLEAEDAATYYCGQGNRLPYTFGQGTKVEIE

KD(pH5.8)/KD(pH7.4) [2]: 2.4
KD(pH5.8)/KD(pH7.4) [6]: 1.6
kd(pH 5.8)/kd(pH 7.4) [7]: 2.9
kd(pH 5.8)/kd(pH 7.4) [3]: 1
kd(pH 5.8)/kd(pH 7.4) [4]: 1
B4: humanized PM1 antibody (wild type, WT) (antibody, human IgG1, kappa, V domains shown)
VH: QVQLQESGPGLVRPSQTLSLTCTVSGYSITSDHAWSWVRQPPGRGLEWIGYISYSGITTYNPSLKSRVTMLRDTSKNQFSLRLSSVTAADTAVYYCARSLARTTAMDYWGQGSLVTVSS
VL: DIQMTQSPSSLSASVGDRVTITCRASQDISSYLNWYQQKPGKAPKLLIYYTSRLHSGVPSRFSGSGSGTDFTFTISSLQPEDIATYYCQQGNTLPYTFGQGTKVEIKR
notes: Tested as IgG1; also called WT-IgG1; H(WT)/L(WT)

pH-dependent binding ability relative to WT [9]: 10 times
KD(pH 5.5)/KD(pH 7.4) [8]: 10.3
B6: Anti-IL6 clone 1 (antibody, human IgG1, kappa, V domains shown)
VH: EVQLVESGGKLLKPGGSLKLSCAASGFTFSSHAMSWFRQSPEKRLEWVAEISSGGSYTYHPHTVTGRFTISRDNAKNTLYLEMSSLRSEDTAMYYCARGLWGHYALDYWGQGTSVTVSS
VL: QIVLIQSPAIMSASPGEKVTMTCSASSSVSYMYWYQQKPGSSPRLLIYDTSNHASGVPVRFSGSGSGTSYSLTISRMEAEDAATYYCQHWSGHPYTFGGGTKLEIKR
notes: H chain (c1) and L chain (c1)

pH-dependent binding ability relative to WT [9]: 10 times
KD(pH 5.5)/KD(pH 7.4) [8]: 13.5
B7: Anti-IL-6 clone 2 (antibody, human IgG1, kappa, V domains shown)
VH: EVQLVESGGKLLKPGGSLKLSCAASGFTFSSHAMSWFRQSPEKRLEWVAEISSGGSYTYHPHTVTGRFTISRDNAKNTLYLEMSSLRSEDTAMYYCARGLWGHYALDYWGQGTSVTVSS
VL: QIVLIQSPAIMSASPGEKVTMTCSASSSVSYMYWYQQKPGSSPRLLIYDTSHHASGVPVRFSGSGSGTSYSLTISRMEAEDAATYYCQHWSGHPYTFGGGTKLEIKR
notes: H chain (c1) and L chain (c2)

More lines, now with the values behind:

B1: H3pI/L73 (antibody, IgG1, V domains shown)
VH: QVQLQESGPGLVKPSETLSLTCAVSGHSISHDHAHSWVRQPPGEGLEWIGYISYSGITNYNPSLKGRVTISRDTSKNQFSLKLSSVTAADTAAYYCARSLARTTAMDYWGEGTLVTVSS
VL: DIQMTQSPSSLSASVGDSVTITCQASQHISSHLNWYQQKPGKAPELLIYYGSHLHSGVPSRFSGSGSGTDFTFTISSLEAEDAATYYCGQGNRLPYTFGQGTKVEIE
notes: antibody expressed as IgG1; also called H3pI/L73-IgG1; H3pl/L73
pH-dependent binding (affinity ratio) relative to WT [1]: 15 times
KD(pH5.8)/KD(pH7.4) [2]: 41.3
kd(pH 5.8)/kd(pH 7.4) [3]: 2.59
kd(pH 5.8)/kd(pH 7.4) [4]: 2.59

B2: H170/L82 (antibody, IgG1, V domains shown)
VH: QVQLQESGPGLVKPSETLSLTCAVSGHSISHHHAHSWVRQPPGEGLEWIGYISYSGITHYNPHLKGRVTISRDTSKNQFSLKLSSVTAADTAAYYCARVLARITAMDHWGEGTLVTVSS
VL: DIQMTQSPSSLSASVGDSVTITCQASQDISSHLNWYQQKPGKAPELLIYYGSHLHSGVPSRFSGSGSGTDFTFTISSLEAEDAATYYCGQGNRLPYTFGQGTKVEIE
notes: expressed and purified as IgG (IgG1); also called H170/L82-IgG1
pH-dependent binding (affinity ratio) relative to WT [1]: 15 times
total amount of antigen bound over ten cycles relative to WT [5]: ~4 times
KD(pH5.8)/KD(pH7.4) [2]: 394
KD(pH5.8)/KD(pH7.4) [6]: 61.9
kd(pH 5.8)/kd(pH 7.4) [7]: 11.4

B5: Anti-IL6 wild type (antibody, human IgG1, kappa, V domains shown)
VH: EVQLVESGGKLLKPGGSLKLSCAASGFTFSSFAMSWFRQSPEKRLEWVAEISSGGSYTYYPDTVTGRFTISRDNAKNTLYLEMSSLRSEDTAMYYCARGLWGYYALDYWGQGTSVTVSS
VL: QIVLIQSPAIMSASPGEKVTMTCSASSSVSYMYWYQQKPGSSPRLLIYDTSNLASGVPVRFSGSGSGTSYSLTISRMEAEDAATYYCQQWSGYPYTFGGGTKLEIKR
notes: also called WT (anti-IL-6 antibody of WO 2004/039826)
KD(pH 5.5)/KD(pH 7.4) [8]: 0.8

From patent publication US20110111406A1 (published 2011)
